# Key:
# Settings in all cases: EMSA per cited procedure (ref 27); buffer, salt, pH and temperature not given in the material
# [1] = tested on: T1, TarR (Bacillus velezensis FZB42), ORF:a9b72c09; test: EMSA
# T1 sequence: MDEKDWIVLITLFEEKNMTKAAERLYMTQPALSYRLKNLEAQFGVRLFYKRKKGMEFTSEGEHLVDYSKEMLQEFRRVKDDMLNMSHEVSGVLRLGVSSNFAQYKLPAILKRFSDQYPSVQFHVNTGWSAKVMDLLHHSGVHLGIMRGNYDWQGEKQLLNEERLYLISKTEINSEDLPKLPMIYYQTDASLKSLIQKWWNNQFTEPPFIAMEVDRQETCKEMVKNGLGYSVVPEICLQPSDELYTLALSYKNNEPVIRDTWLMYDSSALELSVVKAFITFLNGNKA
# [2] = tested on: T1, TarR (Bacillus velezensis FZB42), ORF:a9b72c09; test: DNase I footprinting
# [3] = tested on: T2, TarRN1-91 (Bacillus velezensis FZB42), ORF:46dabd2b; test: EMSA?
# T2 sequence: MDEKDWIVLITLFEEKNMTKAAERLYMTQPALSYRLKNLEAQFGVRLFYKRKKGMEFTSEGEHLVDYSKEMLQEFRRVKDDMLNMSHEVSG
Sequence,binding [1],binding [2],binding [3]
AGCGAAAATATTTTTTAAAAAAGTATTGACCTAGCAAACTGAAAATGTTATGATTAAGAGGTCGCTTCGAGAGAAGCAACAAAGTTCTTTGAAAACTAAACAAGACAAAACGTACCTGTTAATTCAAAGTTTTAAATAAATCGCACAGCGATGTGCGTAGTCAGTCAAACTAC (double strand) [P16S],no binding,,
GCTGTCTCATCCTTACATCATTTTGTGTGGATAAAAAGGTACCGGTCCCTTTGGAAAATATCGTATGATAAATAAGGATTATAAGTAAAACATATAATTTTTATAAAGTTGAATAAAAAAAATTTATAATAAGAGAAAATTTTATAGCAGAAAAATATTTTGGGGGATTTCAT (double strand) [Ptar],binds,binds,binds

# — PMC11495376
